This note sets out measurements from paper PMC4883770.

This assay deals with Flag-epitope tagged CncC (Drosophila melanogaster) (UniProt P20482).
Sequence of Flag-epitope tagged CncC (Drosophila melanogaster) (P20482 whole entry): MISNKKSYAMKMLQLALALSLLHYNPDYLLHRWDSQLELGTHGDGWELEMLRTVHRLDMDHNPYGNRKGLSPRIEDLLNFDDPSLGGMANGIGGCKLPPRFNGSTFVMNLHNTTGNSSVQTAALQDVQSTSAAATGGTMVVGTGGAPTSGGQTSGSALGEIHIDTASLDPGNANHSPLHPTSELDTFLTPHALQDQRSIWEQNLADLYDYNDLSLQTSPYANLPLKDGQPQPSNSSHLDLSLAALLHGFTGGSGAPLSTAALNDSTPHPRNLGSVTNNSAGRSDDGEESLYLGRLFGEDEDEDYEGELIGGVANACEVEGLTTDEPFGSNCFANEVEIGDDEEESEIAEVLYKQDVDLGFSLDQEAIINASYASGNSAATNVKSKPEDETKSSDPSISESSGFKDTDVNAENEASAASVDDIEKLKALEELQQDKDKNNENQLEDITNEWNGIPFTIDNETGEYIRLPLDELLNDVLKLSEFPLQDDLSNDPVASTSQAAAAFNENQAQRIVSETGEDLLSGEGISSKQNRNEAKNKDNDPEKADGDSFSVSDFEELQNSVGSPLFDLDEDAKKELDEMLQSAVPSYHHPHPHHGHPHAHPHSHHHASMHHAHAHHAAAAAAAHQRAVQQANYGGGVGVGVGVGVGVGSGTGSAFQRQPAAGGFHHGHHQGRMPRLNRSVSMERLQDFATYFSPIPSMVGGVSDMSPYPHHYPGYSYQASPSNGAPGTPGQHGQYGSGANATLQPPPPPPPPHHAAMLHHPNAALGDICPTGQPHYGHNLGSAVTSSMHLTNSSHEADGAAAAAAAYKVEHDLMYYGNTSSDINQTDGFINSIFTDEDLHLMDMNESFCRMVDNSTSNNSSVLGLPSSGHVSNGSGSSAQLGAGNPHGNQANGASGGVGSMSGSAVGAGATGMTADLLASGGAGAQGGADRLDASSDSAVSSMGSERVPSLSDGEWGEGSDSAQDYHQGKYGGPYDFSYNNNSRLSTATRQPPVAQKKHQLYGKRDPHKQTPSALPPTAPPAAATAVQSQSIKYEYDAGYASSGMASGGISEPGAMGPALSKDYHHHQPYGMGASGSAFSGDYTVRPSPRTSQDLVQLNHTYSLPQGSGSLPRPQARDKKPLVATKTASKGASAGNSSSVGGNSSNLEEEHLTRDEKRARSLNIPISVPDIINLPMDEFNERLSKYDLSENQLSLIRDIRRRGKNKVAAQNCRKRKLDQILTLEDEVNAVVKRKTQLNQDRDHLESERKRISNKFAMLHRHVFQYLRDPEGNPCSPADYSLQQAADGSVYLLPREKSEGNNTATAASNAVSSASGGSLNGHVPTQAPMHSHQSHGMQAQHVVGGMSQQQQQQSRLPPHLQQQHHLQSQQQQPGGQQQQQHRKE

Sequence of Fs(1)h-L, the long isoform of Fs(1)h (female sterile (1) homeotic), P13709 1-2038 (natural protein; acetylated lysines (shown with a generic anti-acetyl lysine antibody; residues not named)) (P13709 whole entry, canonical isoform): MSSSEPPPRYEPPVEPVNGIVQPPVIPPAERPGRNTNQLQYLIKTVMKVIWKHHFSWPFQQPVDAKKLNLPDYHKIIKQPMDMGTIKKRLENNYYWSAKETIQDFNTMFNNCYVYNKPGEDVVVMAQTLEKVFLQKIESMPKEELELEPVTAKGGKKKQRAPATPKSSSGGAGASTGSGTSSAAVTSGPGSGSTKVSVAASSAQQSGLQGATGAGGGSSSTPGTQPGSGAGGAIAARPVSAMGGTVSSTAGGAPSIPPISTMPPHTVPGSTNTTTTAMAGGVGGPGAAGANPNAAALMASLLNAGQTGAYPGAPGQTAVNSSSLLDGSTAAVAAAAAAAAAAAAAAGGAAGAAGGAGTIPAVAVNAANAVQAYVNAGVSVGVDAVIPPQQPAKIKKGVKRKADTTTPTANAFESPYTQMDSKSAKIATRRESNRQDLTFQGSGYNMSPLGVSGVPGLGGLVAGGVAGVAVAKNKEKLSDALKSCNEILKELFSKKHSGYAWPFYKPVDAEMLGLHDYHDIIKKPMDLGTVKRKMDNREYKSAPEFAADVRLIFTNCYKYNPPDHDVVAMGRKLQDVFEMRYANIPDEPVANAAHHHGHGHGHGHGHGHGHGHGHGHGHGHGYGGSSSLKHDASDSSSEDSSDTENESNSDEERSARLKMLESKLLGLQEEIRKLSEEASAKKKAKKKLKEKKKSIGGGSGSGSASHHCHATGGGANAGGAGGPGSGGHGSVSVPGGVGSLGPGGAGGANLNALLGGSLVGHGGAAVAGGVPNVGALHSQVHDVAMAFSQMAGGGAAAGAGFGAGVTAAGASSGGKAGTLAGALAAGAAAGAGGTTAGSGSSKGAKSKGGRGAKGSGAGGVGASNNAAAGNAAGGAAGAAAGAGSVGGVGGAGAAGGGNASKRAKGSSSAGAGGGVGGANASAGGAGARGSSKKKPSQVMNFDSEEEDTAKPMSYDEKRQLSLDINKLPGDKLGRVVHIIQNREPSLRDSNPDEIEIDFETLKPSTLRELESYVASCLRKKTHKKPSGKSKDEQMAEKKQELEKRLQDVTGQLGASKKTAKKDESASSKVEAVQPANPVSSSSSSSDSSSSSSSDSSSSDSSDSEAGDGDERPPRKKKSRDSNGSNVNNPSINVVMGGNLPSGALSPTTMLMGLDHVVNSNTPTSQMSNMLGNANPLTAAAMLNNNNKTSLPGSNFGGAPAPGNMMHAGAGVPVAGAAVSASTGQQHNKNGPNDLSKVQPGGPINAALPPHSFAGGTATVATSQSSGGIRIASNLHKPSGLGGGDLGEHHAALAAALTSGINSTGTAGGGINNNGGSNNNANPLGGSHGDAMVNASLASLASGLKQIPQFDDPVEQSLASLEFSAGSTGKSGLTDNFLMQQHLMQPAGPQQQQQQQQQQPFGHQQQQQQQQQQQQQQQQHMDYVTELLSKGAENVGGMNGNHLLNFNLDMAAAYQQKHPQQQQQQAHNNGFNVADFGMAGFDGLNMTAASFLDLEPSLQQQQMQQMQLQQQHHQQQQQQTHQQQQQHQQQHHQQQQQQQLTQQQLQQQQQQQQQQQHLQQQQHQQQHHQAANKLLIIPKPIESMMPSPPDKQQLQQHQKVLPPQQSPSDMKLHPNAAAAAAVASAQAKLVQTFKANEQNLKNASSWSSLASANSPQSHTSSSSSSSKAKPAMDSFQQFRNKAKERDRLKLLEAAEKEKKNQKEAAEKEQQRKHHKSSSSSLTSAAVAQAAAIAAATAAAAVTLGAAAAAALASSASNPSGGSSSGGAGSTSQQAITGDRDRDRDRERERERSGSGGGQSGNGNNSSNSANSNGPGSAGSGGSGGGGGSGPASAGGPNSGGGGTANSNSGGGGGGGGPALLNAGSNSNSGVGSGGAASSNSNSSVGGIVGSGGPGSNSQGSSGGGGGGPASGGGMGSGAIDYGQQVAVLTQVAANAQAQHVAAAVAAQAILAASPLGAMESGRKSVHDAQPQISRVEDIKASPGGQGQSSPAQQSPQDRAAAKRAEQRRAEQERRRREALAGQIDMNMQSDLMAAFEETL

The substance “Fs(1)h-L, the long isoform of Fs(1)h (female sterile (1) homeotic), P13709 1-2038 (natural protein; acetylated lysines (shown with a generic anti-acetyl lysine antibody; residues not named))” had an ARE-fluc reporter activity in S2 cells treated with 1μM JQ1 for 24 hrs, fold change relative to controls of 6.5 fold.
